Experimental data as given in paper PMC2813981.

Experiments:
[1] = molecular target: fibrinogen fragment D (human); assay: SPR
[2] = molecular target: fibrin matrix (thrombin- and factor XIIIa-treated human fibrinogen) (human) (UniProt P02671); assay: confocal microscopy of perfused fibrin matrices
Sequence of UniProt P02671 (P02671 36-866, chain 1 of 3): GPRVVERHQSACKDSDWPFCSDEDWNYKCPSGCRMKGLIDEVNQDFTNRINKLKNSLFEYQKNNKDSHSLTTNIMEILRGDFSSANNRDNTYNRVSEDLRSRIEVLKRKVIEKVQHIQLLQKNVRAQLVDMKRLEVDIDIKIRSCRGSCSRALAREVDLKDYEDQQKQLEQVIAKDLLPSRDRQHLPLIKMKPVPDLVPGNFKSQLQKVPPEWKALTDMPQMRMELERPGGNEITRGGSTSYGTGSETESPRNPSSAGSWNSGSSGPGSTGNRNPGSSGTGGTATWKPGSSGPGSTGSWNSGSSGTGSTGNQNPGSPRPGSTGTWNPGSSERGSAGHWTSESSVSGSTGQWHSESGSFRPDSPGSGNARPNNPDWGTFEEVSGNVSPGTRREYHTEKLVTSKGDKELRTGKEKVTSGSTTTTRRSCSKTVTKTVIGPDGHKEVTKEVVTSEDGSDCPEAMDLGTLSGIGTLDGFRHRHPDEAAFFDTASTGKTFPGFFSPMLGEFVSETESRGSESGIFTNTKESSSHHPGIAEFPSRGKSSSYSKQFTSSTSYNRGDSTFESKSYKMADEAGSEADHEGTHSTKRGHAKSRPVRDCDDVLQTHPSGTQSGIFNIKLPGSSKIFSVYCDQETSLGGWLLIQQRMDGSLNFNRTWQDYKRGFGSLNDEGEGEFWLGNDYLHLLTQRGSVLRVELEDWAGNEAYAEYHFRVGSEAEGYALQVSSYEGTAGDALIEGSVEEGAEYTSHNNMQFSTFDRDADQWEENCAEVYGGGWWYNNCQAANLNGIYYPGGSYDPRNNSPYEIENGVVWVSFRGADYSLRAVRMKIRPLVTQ
Sequence of UniProt P02671 (P02675 45-491, chain 2 of 3, further chain): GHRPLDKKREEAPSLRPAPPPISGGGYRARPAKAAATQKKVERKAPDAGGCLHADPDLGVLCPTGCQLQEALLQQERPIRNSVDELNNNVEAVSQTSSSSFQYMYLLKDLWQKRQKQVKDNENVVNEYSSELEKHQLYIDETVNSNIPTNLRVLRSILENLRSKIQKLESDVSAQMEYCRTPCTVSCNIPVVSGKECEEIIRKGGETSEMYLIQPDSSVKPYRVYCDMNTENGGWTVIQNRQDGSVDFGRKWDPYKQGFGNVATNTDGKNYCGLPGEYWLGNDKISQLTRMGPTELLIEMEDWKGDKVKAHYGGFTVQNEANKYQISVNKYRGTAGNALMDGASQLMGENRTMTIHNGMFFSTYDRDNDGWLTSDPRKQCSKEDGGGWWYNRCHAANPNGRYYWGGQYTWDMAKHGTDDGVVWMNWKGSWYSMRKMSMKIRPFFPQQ
Sequence of UniProt P02671 (P02679 27-453, chain 3 of 3, further chain): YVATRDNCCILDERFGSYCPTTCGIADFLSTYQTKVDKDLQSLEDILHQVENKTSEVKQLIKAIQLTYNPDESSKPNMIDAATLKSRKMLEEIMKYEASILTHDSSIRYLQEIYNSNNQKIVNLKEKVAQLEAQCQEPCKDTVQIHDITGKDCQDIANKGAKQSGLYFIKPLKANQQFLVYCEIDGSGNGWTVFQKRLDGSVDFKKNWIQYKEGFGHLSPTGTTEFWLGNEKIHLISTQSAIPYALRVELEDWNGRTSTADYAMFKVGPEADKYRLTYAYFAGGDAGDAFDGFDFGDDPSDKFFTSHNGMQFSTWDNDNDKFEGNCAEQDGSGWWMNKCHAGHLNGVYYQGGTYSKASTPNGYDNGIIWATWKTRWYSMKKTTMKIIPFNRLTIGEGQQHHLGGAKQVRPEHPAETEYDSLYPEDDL

| KD with a 10-molar excess of soluble GPRP peptide [1] | Kd [1] | percent of fibrin matrix still retaining the conjugate after perfusion [2] | Substance |
| --- | --- | --- | --- |
| 43 µM | 3 µM | – | GPRP-FnIII9-10 (designed binder) |
| – | – | 12.8% | GPRP-FnIII9-10-AF633 (designed binder) |
| – | 125 µM | – | GPRV-FnIII9-10 (designed binder) |
